Like-named read-outs stand apart in the source and are kept apart here. No end group written: not given here. *: point of attachment. Biotin = O=C1N[C@H]2[C@H](CS[C@H]2CCCCC(=O)*)N1
Assays:
[1] = target: T1, KIX domain of CBP coactivator (KIX region 586-672) (UniProt P45481 586-672); experiment: BLI
[2] = target: T1, KIX domain of CBP coactivator (KIX …); experiment: BLI; remark: listed apart in the source

Binder	Kd [1] [nM]	Kd [2] [nM]
Biotin-GSSSEPPSWVTEMLLEN [N-Myc peptide (N-Myc 9aaTAD), Biotin-GSSS-EPPSWVTEMLLEN]	880 ± 110	
Biotin-GSSSTQLEMVTELLG [c-Myc peptide (c-Myc 9aaTAD), Biotin-GSSS-TQLEMVTELLG]	2160 ± 1170	
Biotin-GSNILPSDIMDFVLKNT [MLL peptide (MLL 9aaTAD), Biotin-GS-NILPSDIMDFVLKNT]	1170 ± 210	
Biotin-GSSGDVSWDTLDLDDLD [Sp1-Ac peptide (acidic form of Sp1 9aaTAD), Biotin-GSS-GDVSWDTLDLDDLD]		9770 ± 1570

From doi:10.1101/2024.03.15.585150 (bioRxiv, 2024)
